Read-outs that look alike come from different tables or passages of the source.
Columns and labels:
Hera_core [1] = target: T1, Hera_core (UniProt Q72GF3 1-365); experiment: fluorescence intensity titration
T1 sequence: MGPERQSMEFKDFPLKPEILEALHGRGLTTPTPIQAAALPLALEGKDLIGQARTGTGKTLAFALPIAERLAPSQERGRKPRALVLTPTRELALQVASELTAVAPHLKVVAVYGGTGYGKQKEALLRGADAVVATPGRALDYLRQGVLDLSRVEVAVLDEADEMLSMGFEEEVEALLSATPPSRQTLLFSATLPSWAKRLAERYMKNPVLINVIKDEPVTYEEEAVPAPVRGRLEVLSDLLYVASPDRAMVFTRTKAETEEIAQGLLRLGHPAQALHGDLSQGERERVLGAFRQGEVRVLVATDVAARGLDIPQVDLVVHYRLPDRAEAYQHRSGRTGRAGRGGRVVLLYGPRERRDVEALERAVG

Hera RecA_N = target: T2, Hera RecA_N (UniProt Q72GF3 1-207); experiment: fluorescence intensity titration
T2 sequence: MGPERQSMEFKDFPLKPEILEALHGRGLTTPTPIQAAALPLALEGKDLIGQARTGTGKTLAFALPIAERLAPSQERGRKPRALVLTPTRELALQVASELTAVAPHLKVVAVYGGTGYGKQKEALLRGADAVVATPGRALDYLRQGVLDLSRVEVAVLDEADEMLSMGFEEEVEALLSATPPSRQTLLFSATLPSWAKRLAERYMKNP

Hera RecA_C = target: T3, Hera RecA_C (UniProt Q72GF3 208-369); experiment: fluorescence intensity titration
T3 sequence: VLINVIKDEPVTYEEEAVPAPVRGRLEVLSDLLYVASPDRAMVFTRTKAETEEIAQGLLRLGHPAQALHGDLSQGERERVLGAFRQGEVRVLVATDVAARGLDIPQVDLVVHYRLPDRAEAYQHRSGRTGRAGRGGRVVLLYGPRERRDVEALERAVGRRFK

YxiN_core = target: T4, YxiN_core (UniProt P42305 1-368); experiment: fluorescence intensity titration
T4 sequence: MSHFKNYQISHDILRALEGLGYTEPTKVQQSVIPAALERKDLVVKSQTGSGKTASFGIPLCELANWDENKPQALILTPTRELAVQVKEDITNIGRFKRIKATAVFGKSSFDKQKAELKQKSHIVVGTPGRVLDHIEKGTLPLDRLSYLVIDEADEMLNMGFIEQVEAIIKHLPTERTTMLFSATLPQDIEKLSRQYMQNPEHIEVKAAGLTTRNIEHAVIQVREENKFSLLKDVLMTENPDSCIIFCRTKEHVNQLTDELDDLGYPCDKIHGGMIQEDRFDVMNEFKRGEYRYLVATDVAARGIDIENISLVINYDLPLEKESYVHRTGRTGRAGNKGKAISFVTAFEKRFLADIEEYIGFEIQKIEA

YxiN RecA_N = target: T5, YxiN RecA_N (UniProt P42305 1-206); experiment: fluorescence anisotropy
T5 sequence: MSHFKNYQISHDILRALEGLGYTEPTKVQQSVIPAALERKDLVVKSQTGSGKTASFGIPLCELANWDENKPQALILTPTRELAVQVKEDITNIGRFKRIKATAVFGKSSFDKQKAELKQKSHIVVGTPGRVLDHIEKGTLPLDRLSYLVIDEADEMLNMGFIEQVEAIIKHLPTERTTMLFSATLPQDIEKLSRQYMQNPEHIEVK

YxiN RecA_C = target: T6, YxiN RecA_C (UniProt P42305 211-370); experiment: fluorescence anisotropy
T6 sequence: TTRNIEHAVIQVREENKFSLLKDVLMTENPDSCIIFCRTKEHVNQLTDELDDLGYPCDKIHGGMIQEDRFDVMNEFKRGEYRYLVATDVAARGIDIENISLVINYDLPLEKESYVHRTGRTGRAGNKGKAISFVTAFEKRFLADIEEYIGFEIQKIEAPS

Hera_core [2] = target: T1, Hera_core; experiment: fluorescence intensity titration; remark: listed apart in the source

B1: 14mer dsRNA (dsRNA)
RNA 1: GGGCGGGCCCGCCC
RNA 2: GGGCGGGCCCGCCC
- Kd (Hera_core [1]): 0.007 ± 0.003 µM
- Kd (Hera RecA_N): 0.889 ± 0.236 µM
- Kd (Hera RecA_C): 0.327 ± 0.161 µM
- Kd (YxiN_core): 0.002 µM
- binding result (YxiN RecA_N): no binding
- binding result (YxiN RecA_C): no binding
- Kd (Hera_core [2]): 0.0151 µM

— PMC4176333
